Laboratory results taken from paper PMC12293770, “Mechanistic Insights into the Bornyl Diphosphate Synthase from Lavandula angustifolia” (Current Issues in Molecular Biology, 2025).

Columns and labels:
Test in all cases: GC-MS of hexane phase, Hanes-Woolf plot
Assay type in all cases: biochemical, Lavandula angustifolia
Settings in all cases: 25 mM Tris-HCl pH 7.5, 10 mM MgCl2, 1 mM MnCl2, 30 °C, 2 h
[1] = substrate: CC(C)=CCC/C(C)=C/COP(=O)(O)OP(=O)(O)O
From the text: GC-MS of hexane phase, Hanes-Woolf plot on ∆578–602

[2] = substrate: CC(C)=CCC/C(C)=C/COP(=O)(O)OP(=O)(O)O; remark: listed apart in the source
From the text: GC-MS of hexane phase, Hanes-Woolf plot on ∆1–74

[3] = substrate: CC(C)=CCC/C(C)=C/COP(=O)(O)OP(=O)(O)O; remark: listed apart in the source
From the text: GC-MS of hexane phase, Hanes-Woolf plot on ∆1–58

[4] = substrate: CC(C)=CCC/C(C)=C/COP(=O)(O)OP(=O)(O)O; remark: listed apart in the source
From the text: GC-MS of hexane phase, Hanes-Woolf plot on LaBPPS (WT)

[5] = substrate: CC(C)=CCC/C(C)=C/COP(=O)(O)OP(=O)(O)O; remark: listed apart in the source
From the text: GC-MS of hexane phase, Hanes-Woolf plot on ∆59–74

B1: ∆578–602 (Lavandula angustifolia subsp. angustifolia) (protein)
chain: MTAARSFMAINSNMTTDHLHKFGKKNLEFGQGYSCNNASPMRLRPCCSLKLSTNAESQLDSTRRSGMYKPTLWDFDRIQSLNSVYTEEKYSTRACDLIQQVKKLLEESDWFRQLQLIDDLQRLGLSYRFDDEINLILNTIYFEKKFCEKEMDLYSTSLAFRLLRQHGLKVSQEVFDCFKNEEGDFEARLGDETNGILEMCEASFLATEGEETLELARLFTTNILQKKLDDERNELLIMDDYLRTLIRHSLDLPLYWRVQRPSARWFIEAYATRSDMNPIMLELAKLDFNIVQATHQEELKQVSRWWKESRLAEKLPFARDRVVENYLWNRGMLFPPQYGYPRIMNAKLFVLITVLDDIYDVYGTLEETQLFTNLITRWDVEAIGQLPEYMRICYMAIDNNINELAYEVLKQHGLLIIQDLRKFWADLCVAYGKEAEWYYTGYKPTLEEYLEVAWVSISAHLILGYMFFLTSNPIEKEASQSLSNYHNIIRNSAMVLRLADDLGTSPYEMQRGDVPKAVECYMNENGASTEEAREYVKHLLREVWKETNGERFKESPFTPSFMRICADLGRMAQFMYQ
notes: C-terminal truncation, residues 578-602 deleted; E. coli, Talon resin, thrombin-cleaved
Km [1]: 14.83 ± 1.09 µM | kcat [1]: 0.195 ± 0.0143 s⁻¹

B2: ∆1–74 (Lavandula angustifolia subsp. angustifolia) (protein)
chain: FDRIQSLNSVYTEEKYSTRACDLIQQVKKLLEESDWFRQLQLIDDLQRLGLSYRFDDEINLILNTIYFEKKFCEKEMDLYSTSLAFRLLRQHGLKVSQEVFDCFKNEEGDFEARLGDETNGILEMCEASFLATEGEETLELARLFTTNILQKKLDDERNELLIMDDYLRTLIRHSLDLPLYWRVQRPSARWFIEAYATRSDMNPIMLELAKLDFNIVQATHQEELKQVSRWWKESRLAEKLPFARDRVVENYLWNRGMLFPPQYGYPRIMNAKLFVLITVLDDIYDVYGTLEETQLFTNLITRWDVEAIGQLPEYMRICYMAIDNNINELAYEVLKQHGLLIIQDLRKFWADLCVAYGKEAEWYYTGYKPTLEEYLEVAWVSISAHLILGYMFFLTSNPIEKEASQSLSNYHNIIRNSAMVLRLADDLGTSPYEMQRGDVPKAVECYMNENGASTEEAREYVKHLLREVWKETNGERFKESPFTPSFMRICADLGRMAQFMYQHGDGHGIRNLQMEDRIQSLIFEPIV
notes: N-terminal truncation, residues 1-74 deleted; E. coli, Talon resin, thrombin-cleaved
Km [2]: 41.72 ± 2.15 µM | kcat [2]: 0.0532 ± 0.002 s⁻¹

B3: ∆1–58 (Lavandula angustifolia subsp. angustifolia) (protein)
chain: LDSTRRSGMYKPTLWDFDRIQSLNSVYTEEKYSTRACDLIQQVKKLLEESDWFRQLQLIDDLQRLGLSYRFDDEINLILNTIYFEKKFCEKEMDLYSTSLAFRLLRQHGLKVSQEVFDCFKNEEGDFEARLGDETNGILEMCEASFLATEGEETLELARLFTTNILQKKLDDERNELLIMDDYLRTLIRHSLDLPLYWRVQRPSARWFIEAYATRSDMNPIMLELAKLDFNIVQATHQEELKQVSRWWKESRLAEKLPFARDRVVENYLWNRGMLFPPQYGYPRIMNAKLFVLITVLDDIYDVYGTLEETQLFTNLITRWDVEAIGQLPEYMRICYMAIDNNINELAYEVLKQHGLLIIQDLRKFWADLCVAYGKEAEWYYTGYKPTLEEYLEVAWVSISAHLILGYMFFLTSNPIEKEASQSLSNYHNIIRNSAMVLRLADDLGTSPYEMQRGDVPKAVECYMNENGASTEEAREYVKHLLREVWKETNGERFKESPFTPSFMRICADLGRMAQFMYQHGDGHGIRNLQMEDRIQSLIFEPIV
notes: N-terminal truncation, residues 1-58 deleted; E. coli, Talon resin, thrombin-cleaved
Km [3]: 28.12 ± 1.75 µM | kcat [3]: 0.113 ± 0.00583 s⁻¹

B4: LaBPPS (WT) (Lavandula angustifolia subsp. angustifolia) (protein)
chain: MTAARSFMAINSNMTTDHLHKFGKKNLEFGQGYSCNNASPMRLRPCCSLKLSTNAESQLDSTRRSGMYKPTLWDFDRIQSLNSVYTEEKYSTRACDLIQQVKKLLEESDWFRQLQLIDDLQRLGLSYRFDDEINLILNTIYFEKKFCEKEMDLYSTSLAFRLLRQHGLKVSQEVFDCFKNEEGDFEARLGDETNGILEMCEASFLATEGEETLELARLFTTNILQKKLDDERNELLIMDDYLRTLIRHSLDLPLYWRVQRPSARWFIEAYATRSDMNPIMLELAKLDFNIVQATHQEELKQVSRWWKESRLAEKLPFARDRVVENYLWNRGMLFPPQYGYPRIMNAKLFVLITVLDDIYDVYGTLEETQLFTNLITRWDVEAIGQLPEYMRICYMAIDNNINELAYEVLKQHGLLIIQDLRKFWADLCVAYGKEAEWYYTGYKPTLEEYLEVAWVSISAHLILGYMFFLTSNPIEKEASQSLSNYHNIIRNSAMVLRLADDLGTSPYEMQRGDVPKAVECYMNENGASTEEAREYVKHLLREVWKETNGERFKESPFTPSFMRICADLGRMAQFMYQHGDGHGIRNLQMEDRIQSLIFEPIV
notes: full-length, codon-optimised gene, pHXGWA, E. coli Rosetta (DE3) pLysS, Talon resin, thrombin-cleaved; monomer by DLS
Km [4]: 29.37 ± 1.21 µM | kcat [4]: 0.104 ± 0.00783 s⁻¹

B5: ∆59–74 (Lavandula angustifolia subsp. angustifolia; DEL59-74) (protein)
chain: MTAARSFMAINSNMTTDHLHKFGKKNLEFGQGYSCNNASPMRLRPCCSLKLSTNAESQFDRIQSLNSVYTEEKYSTRACDLIQQVKKLLEESDWFRQLQLIDDLQRLGLSYRFDDEINLILNTIYFEKKFCEKEMDLYSTSLAFRLLRQHGLKVSQEVFDCFKNEEGDFEARLGDETNGILEMCEASFLATEGEETLELARLFTTNILQKKLDDERNELLIMDDYLRTLIRHSLDLPLYWRVQRPSARWFIEAYATRSDMNPIMLELAKLDFNIVQATHQEELKQVSRWWKESRLAEKLPFARDRVVENYLWNRGMLFPPQYGYPRIMNAKLFVLITVLDDIYDVYGTLEETQLFTNLITRWDVEAIGQLPEYMRICYMAIDNNINELAYEVLKQHGLLIIQDLRKFWADLCVAYGKEAEWYYTGYKPTLEEYLEVAWVSISAHLILGYMFFLTSNPIEKEASQSLSNYHNIIRNSAMVLRLADDLGTSPYEMQRGDVPKAVECYMNENGASTEEAREYVKHLLREVWKETNGERFKESPFTPSFMRICADLGRMAQFMYQHGDGHGIRNLQMEDRIQSLIFEPIV
notes: internal deletion of residues 59-74; E. coli, Talon resin, thrombin-cleaved
Km [5]: 38.49 ± 2.58 µM | kcat [5]: 0.0562 ± 0.007 s⁻¹
